Laboratory results from US20240390468A1, “SURVIVIN AND MAGE-A9 DUAL-TARGETED IMMUNOTHERAPY” (IMMUNOVACCINE TECHNOLOGIES INC., priority 2022, published 2024).

Test system: splenocytes of A2/DR1 mice
Experiment: IFN-γ ELISA after stimulation of spleen cells with peptides
Assay type: cell-based
Method: FIG. 25 depicts cytokine response upon stimulation with reactive HLA-A2 MAGE-A9 peptides. Groups of three A2/DR1 mice were either not immunized (naive mice) or immunized twice with a pool of four reactive peptides in CTL assays (M9-A2-24; M9-A2-111; M9-A2-223; M9-A2-270) or with adjuvants only, as control. Mice were sacrificed after 28 days and spleens were collected for isolation of splenocytes. Splenocytes were restimulated for 72 h with either individual peptides or the peptide pool. Supernatant was collected and assayed by ELISA for secretion of murine INF-7. Bars represent mean of triplicate plus or minus standard deviation (SD). Tukey's multiple comparisons test was used to determine adjusted p values. *=p<0.05, **=p<0.01, ***=p<0.001, ****=p<0.0001.
INF-γ secreted after stimulation of spleen cells with the four peptides were tested by ELISA.
Supernatants from cultures of whole splenocytes stimulated with the irradiated splenocytes loaded with the peptides were collected after 72 hours of stimulation and the amounts of IFN-γ were estimated by sandwich ELISA using the mouse IFN-γ ELISA Max set Deluxe kit (BioLegend, San Diego, CA).

B1: recombinant MAGE-A9: his-tag MAGE-A9 full-length recombinant protein used as immunogen admixed with poly(I:C) (protein, UniProt P43362 1-315, looked up)
chain: MSLEQRSPHCKPDEDLEAQGEDLGLMGAQEPTGEEEETTSSSDSKEEEVSAAGSSSPPQSPQGGASSSISVYYTLWSQFDEGSSSQEEEEPSSSVDPAQLEFMFQEALKLKVAELVHFLLHKYRVKEPVTKAEMLESVIKNYKRYFPVIFGKASEFMQVIFGTDVKEVDPAGHSYILVTALGLSCDSMLGDGHSMPKAALLIIVLGVILTKDNCAPEEVIWEALSVMGVYVGKEHMFYGEPRKLLTQDWVQENYLEYRQVPGSDPAHYEFLWGSKAHAETSYEKVINYLVMLNAREPICYPSLYEEVLGEEQEGV
modifications: full-length His tag
- subtype of T cells induced after immunization: Th1 subtype
